Experiments:
STAT5B = STAT5B (UniProt P42232); assay: anti-STAT5A IP, anti-STAT5B blot; conditions: reference: WT T cells, IL-2 stimulated; sites Y694
STAT5A = STAT5A (UniProt P42230); assay: anti-STAT5A IP, anti-STAT5B blot; conditions: reference: WT T cells, IL-2 stimulated; sites Y699

With “STAT5A (from UniProt P42230) Stat5a KI (Y694F) T cells, IL-2 stimulated” the “binding against the reference” value (STAT5B) was “lost”.
With “STAT5B (from UniProt P42232) Stat5b KI (Y699F) T cells, IL-2 stimulated” the “binding against the reference” value (STAT5A) was “lost”.
